Test [1] concerns the target T1, NrdJd-wt (Snas 4560), full-length class II RNR (Stackebrandtia nassauensis, UniProt D3Q6G1).
T1 construct: gene Snas_4560; monomer/dimer, tetramer/hexamer with dATP or dGTP
T1 sequence (D3Q6G1 1-946): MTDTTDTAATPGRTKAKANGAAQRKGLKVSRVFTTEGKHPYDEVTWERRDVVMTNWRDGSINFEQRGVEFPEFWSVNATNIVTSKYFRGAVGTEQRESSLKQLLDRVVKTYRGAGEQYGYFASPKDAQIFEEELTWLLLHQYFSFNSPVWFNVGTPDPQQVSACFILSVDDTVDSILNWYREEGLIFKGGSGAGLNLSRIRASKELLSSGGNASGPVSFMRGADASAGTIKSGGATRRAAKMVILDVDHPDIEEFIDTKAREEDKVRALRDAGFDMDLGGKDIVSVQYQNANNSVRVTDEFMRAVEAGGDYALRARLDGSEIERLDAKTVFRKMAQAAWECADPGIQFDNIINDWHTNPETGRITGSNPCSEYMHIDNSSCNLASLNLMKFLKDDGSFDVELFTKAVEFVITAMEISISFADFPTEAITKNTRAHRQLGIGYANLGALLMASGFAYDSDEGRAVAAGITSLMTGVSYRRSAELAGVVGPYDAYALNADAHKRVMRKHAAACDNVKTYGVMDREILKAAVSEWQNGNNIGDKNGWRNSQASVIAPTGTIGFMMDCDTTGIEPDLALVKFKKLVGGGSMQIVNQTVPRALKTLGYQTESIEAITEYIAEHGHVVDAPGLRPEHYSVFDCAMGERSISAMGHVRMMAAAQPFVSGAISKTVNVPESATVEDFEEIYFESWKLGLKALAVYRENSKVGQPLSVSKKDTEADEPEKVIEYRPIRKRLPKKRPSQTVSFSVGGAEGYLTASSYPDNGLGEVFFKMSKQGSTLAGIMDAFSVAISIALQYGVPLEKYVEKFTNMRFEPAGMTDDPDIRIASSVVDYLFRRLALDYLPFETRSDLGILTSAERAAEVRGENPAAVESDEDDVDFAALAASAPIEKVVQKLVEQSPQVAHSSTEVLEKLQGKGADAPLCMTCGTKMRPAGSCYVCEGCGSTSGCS
The test can be described thus: effector titration of NDP reductase activity, HPLC. To be noted: half-maximal activation by allosteric effector, AdoCbl. Type of test: biochemical.

Test [2] addresses T2, C933A/C370A mixture (mutant mix) of NrdJd (Stackebrandtia nassauensis, UniProt D3Q6G1, C370A/C933A).
T2 construct: gene Snas_4560; equimolar mixture of two separately purified full-length single mutants (not a double mutant)
The test can be described thus: effector titration of CDP reductase activity, HPLC. Type of test: biochemical. Particulars: half-maximal activation by allosteric effector; equimolar mixture of two single mutants; substrate CDP; reductant TCEP; AdoCbl; standard assay Tris pH 8.0, 20 mM MgCl2, room temperature.

In test [3] the target is T1, NrdJd-wt (Snas 4560), full-length class II RNR. The test can be described thus: GEMMA oligomerization titration. Type of test: binding. To be noted: effector-induced tetramer/hexamer formation; 0.075 mg/ml protein; 40 mM ammonium acetate pH 7.8, equimolar MgCl2; possible further nucleotide site.
In test [4] the target is S. nassauensis NrdJd C933A, C-terminal (CRD) mutant (Stackebrandtia nassauensis).
Test [5] concerns the target NrdJd-wt, the full-length version of the Stackebrandtia nassauensis class II ribonucleotide reductase (Stackebrandtia nassauensis). The test can be described thus: SEC; analytical SEC, Superdex 200 Increase 3.2, 25 μl of 1.0 mg/ml protein, 50 mM Tris pH 7.5, 300 mM NaCl, 1 mM DTT, in the presence or absence of 100 μM effector (dATP). Background: In gel filtration, larger molecules generally elute earlier.

Test [6] has the same target. As to the kind of experiment: GEMMA (gas phase electrophoretic macromolecule analysis); 0.075 mg/ml NrdJd-wt with dATP (100 μM, and a titration of dATP), equimolar MgCl2; 40 mM ammonium acetate pH 7.8, 0.005% Tween 20, 0.2 mM DTT.
For test [7] the target is unchanged. The test can be described thus: GEMMA (gas phase electrophoretic macromolecule analysis); 0.075 mg/ml NrdJd-wt, no effector; 40 mM ammonium acetate pH 7.8, 0.005% Tween 20, 0.2 mM DTT.
Test [8] shares this target. As to the kind of experiment: GEMMA (gas phase electrophoretic macromolecule analysis); 0.075 mg/ml NrdJd-wt with dGTP (100 μM, and a titration of dGTP), equimolar MgCl2; 40 mM ammonium acetate pH 7.8, 0.005% Tween 20, 0.2 mM DTT.
Test [9] shares this target. As to the kind of experiment: GEMMA (gas phase electrophoretic macromolecule analysis); 0.075 mg/ml NrdJd-wt with 100 μM dTTP, equimolar MgCl2; 40 mM ammonium acetate pH 7.8, 0.005% Tween 20, 0.2 mM DTT.
For test [10] the target is unchanged. The test can be described thus: GEMMA (gas phase electrophoretic macromolecule analysis); 0.075 mg/ml NrdJd-wt with dCTP, equimolar MgCl2; 40 mM ammonium acetate pH 7.8, 0.005% Tween 20, 0.2 mM DTT.
A further test deals with T3, NrdJdΔCRD (Stackebrandtia nassauensis, UniProt D3Q6G1).
T3 construct: gene Snas_4560; catalytic domain, residues 1-714 (codon 715 replaced by stop), C-terminal cysteine-rich domain removed; mainly monomer
The test can be described thus: effector titration of NDP reductase activity, HPLC. It is filed as biochemical. To be noted: half-maximal activation by allosteric effector; range printed for all effectors together; single preferred NDP substrate; AdoCbl; Tris pH 8.0, 20 mM MgCl2, 50 mM DTT, room temperature.

Test [11] deals with NrdJdΔCRD, the C-terminally deleted version of the S. nassauensis class II ribonucleotide reductase (Stackebrandtia nassauensis). As to the kind of experiment: GEMMA (gas phase electrophoretic macromolecule analysis); 0.025 mg/ml NrdJdΔCRD, with or without 100 μM effector (dATP); 40 mM ammonium acetate pH 7.8, 0.005% Tween 20, 0.2 mM DTT.
Setting [12] is: single preferred NDP substrate (not given), Tris pH 8.0, 20 mM MgCl2, 50 mM DTT (standard conditions), room temperature, upper limit sta.

“And” between values parts separate entries of the source, which are not always exact repeats. Equal entries are not always repeated.

T2 sequence (D3Q6G1 entry or part of it C370A): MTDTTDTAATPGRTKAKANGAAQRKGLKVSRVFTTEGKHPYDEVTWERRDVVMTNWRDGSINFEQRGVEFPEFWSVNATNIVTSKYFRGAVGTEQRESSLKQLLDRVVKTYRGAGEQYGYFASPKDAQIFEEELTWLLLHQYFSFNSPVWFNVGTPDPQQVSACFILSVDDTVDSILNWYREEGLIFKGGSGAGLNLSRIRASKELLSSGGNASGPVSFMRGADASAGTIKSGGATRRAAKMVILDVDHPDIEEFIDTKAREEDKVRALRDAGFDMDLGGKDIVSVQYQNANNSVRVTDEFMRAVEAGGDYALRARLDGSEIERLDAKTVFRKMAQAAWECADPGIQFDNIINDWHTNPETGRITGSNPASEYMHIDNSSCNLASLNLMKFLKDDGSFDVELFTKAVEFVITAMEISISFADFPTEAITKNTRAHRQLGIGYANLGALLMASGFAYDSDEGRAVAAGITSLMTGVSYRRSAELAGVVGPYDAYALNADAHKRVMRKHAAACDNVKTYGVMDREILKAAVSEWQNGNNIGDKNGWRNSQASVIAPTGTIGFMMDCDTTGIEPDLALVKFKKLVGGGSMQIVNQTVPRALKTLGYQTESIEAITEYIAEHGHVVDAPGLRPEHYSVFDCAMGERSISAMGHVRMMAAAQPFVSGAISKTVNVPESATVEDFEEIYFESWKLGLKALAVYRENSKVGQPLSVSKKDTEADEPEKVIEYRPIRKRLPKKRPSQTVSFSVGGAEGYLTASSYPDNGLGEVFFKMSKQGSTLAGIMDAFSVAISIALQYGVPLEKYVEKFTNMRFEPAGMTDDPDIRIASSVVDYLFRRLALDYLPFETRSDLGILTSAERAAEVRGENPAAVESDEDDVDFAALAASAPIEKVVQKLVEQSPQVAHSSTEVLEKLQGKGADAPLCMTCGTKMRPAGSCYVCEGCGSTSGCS
T2 sequence (D3Q6G1 entry or part of it C933A): as the sequence (D3Q6G1 entry or part of it C370A) above, with A370C, C933A counted along it

The EC50 is the concentration giving half of the maximal effect. Regarding `Nc1ncnc2c1ncn2[C@H]1C[C@H](O)[C@@H](COP(=O)(O)OP(=O)(O)OP(=O)(O)O)O1` [dATP], the EC50 in [1] (substrate CDP, reductant TCEP, standard assay Tris pH 8.0, 20 mM MgCl2, room temperature) is below 4 µM; in test [2], 15 ± 4.5 µM. Also, in test [3], the “concentration with half the enzyme as tetramer or hexamer” value is ~ 17 μmol liter^−1.
With “S. nassauensis NrdJd C370A, active site cysteine-deficient mutant (enzyme)”, in [4], the RNR activity of the C933A/C370A mixture, substrate/effector GDP/dTTP (dimers only), TCEP as reductant, dTTP titrated 4 to 1000 μM, relative to NrdJd-wt (3 to 7%) (% of NrdJd-wt) was in the range of 3 to 7; the Vmax of RNR activity of the C933A/C370A mixture, substrate/effector CDP/dATP (tetramers and hexamers), TCEP as reductant, relative to NrdJd-wt (% of the wild type) came to 30.
In turn, `Cc1cn([C@H]2C[C@H](O)[C@@H](COP(=O)(O)OP(=O)(O)OP(=O)(O)O)O2)c(=O)[nH]c1=O` [dTTP] had an EC50 in [1] (setting [12]) below 4 µM.
Consider `Nc1ccn([C@H]2C[C@H](O)[C@@H](COP(=O)(O)OP(=O)(O)OP(=O)(O)O)O2)c(=O)n1` [dCTP], for which the EC50 in test [1] (setting [12]) is below 4 µM.
On the same count and under the same terms, for `Nc1nc2c(ncn2[C@H]2C[C@H](O)[C@@H](COP(=O)(O)OP(=O)(O)OP(=O)(O)O)O2)c(=O)[nH]1` [dGTP] the value was below 4 µM.
As usually defined, the stoichiometry N is the number of molecules, sites or subunits per partner or assembly. Turning to “NrdJd-wt, the full-length version of the Stackebrandtia nassauensis class II ribonucleotide reductase (enzyme)”, the stoichiometry N was 4 in [5]; 4 and 6 in test [6]; 2 in test [7]; 4 and 6 in [8]; 2 in [9]; 2 in test [10].
With `Nc1ncnc2c1ncn2[C@@H]1O[C@H](COP(=O)(O)OP(=O)(O)OP(=O)(O)O)[C@@H](O)[C@H]1O` [ATP], in test [1] (setting [12]), the EC50 is below 4 µM. For the same molecule, the KL entry on NrdJdΔCRD is “the affinity of the C-terminal truncated enzyme toward each tested effector is reduced”.
Molecule “NrdJdΔCRD, the C-terminally deleted version of the S. nassauensis class II ribonucleotide reductase (domain or fragment)” displayed a stoichiometry N in [11] of 2.
